Results: patent US8969027B2, “Protease assay” (priority 2008, dated 2015)
One block for each molecule: values may come before it. No end group written: not given here.

Experiments:
[1] = Fluorescence quantum yield of TCPP; type: physicochemical; details: untethered, non-metalated TCPP
Experimental: The emission spectra of the nanoplatform assembly (1×10^−5 M) in PBS in the presence of about 1×10^−8 M urokinase is depicted in FIG. 4, at 0 (A), 2 (B), 4 (C), and 6 minutes (D). […] The reason for the observed non-linear behavior can be found in the high fluorescence quantum yield of the untethered, non-metalated TCPP. We estimated Φ=0.082, which is approximately eight times higher than in the tethered state, when the large porphyrin-concentration in the sphere around the Fe/Fe3O4-nanoparticle leads to increase FRET and, consequently, radiation-less deactivation of the excited states.

[2] = molecular target: T1, urokinase (Homo sapiens, UniProt P00749); experiment: FRET-based sensor emission spectra in the presence of urokinase; type: biochemical; details: assembly 1×10^−5 M in PBS, about 1×10^−8 M urokinase, 0-6 minutes
T1 construct: purchased Innovative Research, Inc., Novi, Mich
Experimental: For the FRET-Based Sensor, five Zn-TCPP porphyrins were attached to one central stealth-protected Fe/Fe3O4 nanoparticle, and then a non-metalated TCPP porphyrin was attached to the central nanoparticle, using the procedure described below.
To prepare the stealth-protected Fe/Fe3O4-nanoparticles, 35 mg of dopamine-tetraethylene glycol ligand were dissolved in 5 ml THF. Next, 11.0 mg of Fe/Fe3O4-nanoparticles were added and sonicated at room temperature for 1 hour. […] The solid was then collected with a magnet and solvent was decanted carefully. The solid was washed with THF (3×3 ml). After drying under vacuum for 2 hours, 10.0 mg of stealth-protected nanoparticle product was obtained.
The oligopeptide linker was then attached to the metalated porphyrin. […]
The emission spectra of the nanoplatform assembly (1×10^−5 M) in PBS in the presence of about 1×10^−8 M urokinase is depicted in FIG. 4, at 0 (A), 2 (B), 4 (C), and 6 minutes (D). […] The reason for the observed non-linear behavior can be found in the high fluorescence quantum yield of the untethered, non-metalated TCPP. […]
In FIG. 5, the ratios of the integrals of the fluorescence bands shown at λ1=607 nm, λ2=654 nm, and λ3=718 nm are plotted versus the mol percent of released TCPP (as measured by HPLC using an Agilent workstation (HP 1050) equipped with an optical detection system). […]

[3] = molecular target: T1, urokinase; experiment: Fluorescence/phosphorescence assay of uPA activity with chromophore-chromophore assembly; type: biochemical; details: excitation of pyrene at 280 nm, 37° C., about 1×10^−8 mol urokinase, 0-15 minutes
Experimental: In this example, fluorescence/phosphorescence assays were used to measure activity of uPA. A chromophore-chromophore assembly was prepared using the peptide sequence SRSRSRSRSRSGRSAGGGC (SEQ ID NO: 18) (GenScript) as a spacer between a pyrene fluorophore and a coumarin acceptor. All chemicals and solvents were purchased from Fisher/Acros (Pittsburgh, Pa.), unless otherwise noted. The assembly was prepared by dissolving 0.00010 mol of coumarin in THF at room temperature. Next, 0.00012 mol of 1-ethyl-3-(3-dimethyllaminopropyl)carbodiimide (EDC) were added as solid under argon-atmosphere and allowed to react for 5 hours. Then, the oligopeptide linkage was attached to the coumarin by adding to the reaction 0.00010 mol of the oligopeptide dissolved in 1 ml bidest. (double purified) water, followed by stirring at room temperature for 24 hours under argon atmosphere. Next, 0.0020 mol of mercaptopyrene was added as a solid to the solution, and completely dissolved within 5 minutes. The solution was continuously stirred under ambient conditions for another 24 hours. […]
The spectral shift from the assay is depicted in FIG. 3. The changes in the emission spectra were measured using a spectrofluorometer (ISA-SPEX, Fluoromax-2; ISA, Inc., Edison, N.J.). Upon photoexcitation of the pyrene at 280 nm, FRET occurs, which causes the attached coumarin to emit most of the phosphorescence/luminescence. […]

[4] = molecular target: T1, urokinase; experiment: UV/Vis-absorption spectroscopy measurement of uPA activity with nanoparticle-nanoparticle assembly; type: biochemical; details: PBS, 37° C.
Experimental: In this procedure, UV/Vis-Absorption spectroscopy was used to measure the activity of uPA. All chemicals and solvents were purchased from Fisher/Acros (Pittsburgh, Pa.), unless otherwise noted. A nanoparticle-nanoparticle assembly was prepared using citrate-stabilized gold nanoparticles (Sigma-Aldrich, St. Louis, Mo.) with a 10 nm diameter and an oligopeptide with the following sequence: CGGGSGRSAGGGC (SEQ ID NO: 35) (GenScript, Piscataway, N.J.). First, 1 mg of the nanoparticles was suspended in 25 ml of tetrahydrofuran (THF) containing 1.0×10^−3 M of glycine. The microheterogeneous solution was heated under pressure (100 psi) and argon-atmosphere to 200° C. for 5 hours. The reaction was carried out using a High-Pressure Reactor (available from Parr Instruments, Moline, Ill.). Digestive ripening decreased the Au-nanoparticle diameter to 4-5 nm. The nanoparticles were then removed from the solution by ultracentrifugation at 30,000 rpm and then resuspended in THF. The procedure was repeated 10 times to remove all non-bonded glycine.
Next, 0.1 mg of the oligopeptide was added to the Au-nanoparticles in 1.0 ml of anhydrous THF, followed by stirring for 24 hours. The oligopeptide and nanoparticles were precipitated by centrifugation at 30,000 rpm and then resuspended in THF. This procedure was repeated 10 times. The linked Au—Au nanoparticle assemblies were then dissolved in phosphate buffer (PBS; pH=7.02), precipitated by centrifugation at 20,000 rpm and resuspended again in PBS.
The reported absorption coefficient at the maximum absorption of the plasmon is ε=7.66×10^9 M^−1 cm^−1. This absorption coefficient was used to estimate the concentration of the Au—Au nanoparticles at […].
The Au—Au nanoparticles in PBS solution were then added to a quartz cuvette (˜3.0 mL). The solution was heated to 37° C. for 15 minutes. Next, 1×10^−8 mol of urokinase in 0.050 ml of PBS (Innovative Research, Inc., Novi, Mich.) was added to the cuvette. […]

Molecule: O=C(O)c1ccc(-c2c3nc(c(-c4ccc(C(=O)O)cc4)c4ccc([nH]4)c(-c4ccc(C(=O)O)cc4)c4nc(c(-c5ccc(C(=O)O)cc5)c5ccc2[nH]5)C=C4)C=C3)cc1 [TCPP, tetracarboxy-phenyl-porphyrin]
fluorescence quantum yield Φ [1]: 0.082

fluorescence band at λ1=607 nm in the presence of urokinase [2]: distinct decrease
Molecule: FRET-Based Sensor: five Zn-TCPP porphyrins and a non-metalated TCPP attached to one stealth-protected Fe/Fe3O4 nanoparticle via CGGGSGRSAGGGC linkers (cysteine pairing not given here; also: links Zn-TCPP porphyrins and TCPP to Fe/Fe3O4 nanoparticle, attachment points not given here)

Molecule: chromophore-chromophore assembly: pyrene fluorophore and coumarin acceptor linked by peptide SRSRSRSRSRSGRSAGGGC (SEQ ID NO: 18) (also: pyrene fluorophore and coumarin acceptor attached)
coumarin emission (FRET) after adding urokinase [3]: decreases with time

maximum of the gold plasmon absorption after urokinase cleavage ([4]; 1×10^−8 mol urokinase): 517 nm
time for the shift of the plasmon absorption maximum ([4]; 1×10^−8 mol urokinase): ≤ 180 s
maximum of the gold plasmon absorption before urokinase cleavage ([4]; before adding urokinase): 523 nm
Molecule: coupled pair of gold nanoparticles: 4-5 nm gold nanoparticles linked by oligopeptide CGGGSGRSAGGGC (SEQ ID NO: 35) (cysteine pairing not given here; also: attached to gold nanoparticles)
